T1: CEA on MKN45 cells (UniProt P06731 35-685)
T1 construct: whole, on cells
T1 sequence (looked up): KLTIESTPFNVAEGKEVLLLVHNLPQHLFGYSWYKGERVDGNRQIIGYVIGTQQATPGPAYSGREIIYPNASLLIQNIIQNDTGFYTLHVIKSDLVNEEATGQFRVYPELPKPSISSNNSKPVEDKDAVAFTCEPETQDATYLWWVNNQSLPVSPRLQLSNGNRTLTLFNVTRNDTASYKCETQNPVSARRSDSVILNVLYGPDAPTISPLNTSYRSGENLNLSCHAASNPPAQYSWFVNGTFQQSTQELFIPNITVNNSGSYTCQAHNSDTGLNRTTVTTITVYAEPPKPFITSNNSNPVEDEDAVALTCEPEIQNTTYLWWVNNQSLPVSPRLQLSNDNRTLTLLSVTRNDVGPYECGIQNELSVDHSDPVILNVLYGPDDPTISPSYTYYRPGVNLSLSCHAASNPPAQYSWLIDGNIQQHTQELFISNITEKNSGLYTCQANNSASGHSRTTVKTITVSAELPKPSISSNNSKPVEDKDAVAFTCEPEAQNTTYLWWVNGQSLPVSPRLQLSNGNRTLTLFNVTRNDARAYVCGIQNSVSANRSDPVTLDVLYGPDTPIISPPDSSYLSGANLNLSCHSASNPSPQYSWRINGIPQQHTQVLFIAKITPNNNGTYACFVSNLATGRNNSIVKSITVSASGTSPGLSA

B1: PL-1 (bispecific antibody, human IgG1, kappa, L234A L235A)
heavy 1: not shown
light 1: DIVLTQSPASLAVSPGQRATITCRASESVSIHGTHLMHWYQQKPGQPPKLLIYAASKLESGVPARFSGSGSGTDFTLTINPVEAEDTANYYCQQSFEDPLTFGQGTKLEIKGGGGSGIPPKIECLPIDISIDEGKVLTVASAFTGEPTPEVTWSTGGRKIHSQEQGRFHIENTDDLTTLIIKDVQKQDGGLYTLTLRNEFGSDSATVNIHIRSI
heavy 2: not shown
light 2: not shown
B2: PL-2 (bispecific antibody, human IgG1, kappa, L234A L235A)
heavy 1: not shown
light 1: DIVLTQSPASLAVSPGQRATITCRASESVSIHGTHLMHWYQQKPGQPPKLLIYAASKLESGVPARFSGSGSGTDFTLTINPVEAEDTANYYCQQSFEDPLTFGQGTKLEIKGGGGSGIPPKIECLPIDISIDEGKVLTVASAFTGEPTPEVTWSTGGRKIHSQEQGRFHIENTDDSTTLTIKDVQKQDGGLYTLTLRNEFGSDSATVNIHIRSI
heavy 2: not shown
light 2: not shown
B3: PL-3 (bispecific antibody, human IgG1, kappa, L234A L235A)
heavy 1: not shown
light 1: DIVLTQSPASLAVSPGQRATITCRASESVSIHGTHLMHWYQQKPGQPPKLLIYAASKLESGVPARFSGSGSGTDFTLTINPVEAEDTANYYCQQSFEDPLTFGQGTKLEIKGGGGSGIPPKIECLPIDISIDEGKCLTVASAFTGEPTPEVTWSTGGRKIHSQEQGRFHIENTDDSTTLTIKDVQKQDGGLYTLTLRNEFGSDSATVNIHIRSI
heavy 2: not shown
light 2: not shown
B4: PL-4 (bispecific antibody, human IgG1, kappa, L234A L235A)
heavy 1: not shown
light 1: DIVLTQSPASLAVSPGQRATITCRASESVSIHGTHLMHWYQQKPGQPPKLLIYAASKLESGVPARFSGSGSGTDFTLTINPVEAEDTANYYCQQSFEDPLTFGQGTKLEIKGGGGSGIPPKIECLPIDISIDEGKVLTVASCFTGEPTPEVTWSTGGRKIHSQEQGRFHIENTDDSTTLTIKDVQKQDGGLYTLTLRNEFGSDSATVNIHIRSI
heavy 2: not shown
light 2: not shown
B5: PL-5 (bispecific antibody, human IgG1, kappa, L234A L235A)
heavy 1: not shown
light 1: DIVLTQSPASLAVSPGQRATITCRASESVSIHGTHLMHWYQQKPGQPPKLLIYAASKLESGVPARFSGSGSGTDFTLTINPVEAEDTANYYCQQSFEDPLTFGQGTKLEIKGGGGSGIPPKIECLPIDISIDEGKVLTVASAFTGEPTPEVTWSTGGRKIHSQEQGRFHIENTDDSTTLTIKDVQKQDGGLYTLTLRNEFGSDSATVNIHIRSI
heavy 2: not shown
light 2: not shown
B6: PL-6 (bispecific antibody, human IgG1, kappa, L234A L235A)
heavy 1: not shown
light 1: DIVLTQSPASLAVSPGQRATITCRASESVSIHGTHLMHWYQQKPGQPPKLLIYAASKLESGVPARFSGSGSGTDFTLTINPVEAEDTANYYCQQSFEDPLTFGQGTKLEIKGGGGSGIPPKIECLPIDISIDEGKCLTVASAFTGEPTPEVTWSTGGRKIHSQEQGRFHIENTDDSTTLTIKDVQKQDGGLYTLTLRNEFGSDSATVNIHIRSI
heavy 2: not shown
light 2: not shown
B7: PL-7 (bispecific antibody, human IgG1, kappa, L234A L235A)
heavy 1: not shown
light 1: DIVLTQSPASLAVSPGQRATITCRASESVSIHGTHLMHWYQQKPGQPPKLLIYAASKLESGVPARFSGSGSGTDFTLTINPVEAEDTANYYCQQSFEDPLTFGQGTKLEIKGGGGSGIPPKIECLPIDISIDEGKVLTVASCFTGEPTPEVTWSTGGRKIHSQEQGRFHIENTDDSTTLTIKDVQKQDGGLYTLTLRNEFGSDSATVNIHIRSI
heavy 2: not shown
light 2: not shown
B8: PL-8 (bispecific antibody, human IgG1, kappa, L234A L235A)
heavy 1: not shown
light 1: DIVLTQSPASLAVSPGQRATITCRASESVSIHGTHLMHWYQQKPGQPPKLLIYAASKLESGVPARFSGSGSGTDFTLTINPVEAEDTANYYCQQSFEDPLTFGQGTKLEIKGGGGSGIPPKIECLPIDISIDEGKVLTVASAFTGEPTPEVTWSTGGRKIHSQEQGRFHIENTDDSTTLTIKDVQKQDGGLYTLTLRNEFGSDSATVNIHIRSI
heavy 2: not shown
light 2: not shown
B9: PL-9 (bispecific antibody, human IgG1, kappa, L234A L235A)
heavy 1: not shown
light 1: DIVLTQSPASLAVSPGQRATITCRASESVSIHGTHLMHWYQQKPGQPPKLLIYAASKLESGVPARFSGSGSGTDFTLTINPVEAEDTANYYCQQSFEDPLTFGQGTKLEIKGGGGSGIPPKIECLPIDISIDEGKCLTVASAFTGEPTPEVTWSTGGRKIHSQEQGRFHIENTDDSTTLTIKDVQKQDGGLYTLTLRNEFGSDSATVNIHIRSI
heavy 2: not shown
light 2: not shown
B10: N15 (antibody)
heavy: not shown
light: EIVLTQSPGTLSLSPGERATLSCRASQNINNRFLAWYQQRPGQAPRLLIYAASSRATGVPDRFSGSGSGTDFTLTISRLEAEDFAMYHCQQYGSFPRTFGQGTMVDIKSGAPRFLTRPLAFVVSVGKDATLSSQIVGNPTPQVSWEKDQQPVAAGARFRLAQDGDLYRLKILDLALGDSGQYVSRARNAIGEAFACVGLQVDAEA
B11: N17 (antibody)
heavy: not shown
light: EIVLTQSPGTLSLSPGERATLSCRASQNINNRFLAWYQQRPGQAPRLLIYAASSRATGVPDRFSGSGSGTDFTLTISRLEAEDFAMYHCQQYGSFPRTFGQGTMVDIKDQPQFSGAPRFLTRPKAFVVSVGKDATLSSQIVGNPTPQVSWEKDQQPVAAGARFRLAQDGDLYRLTILDLALGDSGQYVSRARNAIGEAFACVGLQVDAEA
B12: N19 (antibody)
heavy: not shown
light: EIVLTQSPGTLSLSPGERATLSCRASQNINNRFLAWYQQRPGQAPRLLIYAASSRATGVPDRFSGSGSGTDFTLTISRLEAEDFAMYHCQQYGSFPRTFGQGTMVDIKDQPQFSGAPRFKTRPKAFVVSVGKDATLSSQIVGNPTPQVSWEKDQQPVAAGARFRLAQDGDLYRLKILDLALGDSGQYVSRARNAIGEAFACVGLQVDAEA
B13: N23 (antibody)
heavy: not shown
light: EIVLTQSPGTLSLSPGERATLSCRASQNINNRFLAWYQQRPGQAPRLLIYAASSRATGVPDRFSGSGSGTDFTLTISRLEAEDFAMYHCQQYGSFPRTFGQGTMVDIKDQPQFSGAPRFRTRPKAFVVSVGKDATLSSQIVGNPTPQVSWEKDQQPVAAGARFRLAQDGDLYRLHILDLALGDSGQYVSRARNAIGEAFACVGLQVDAEA
B14: N20 (antibody)
heavy: not shown
light: EIVLTQSPGTLSLSPGERATLSCRASQNINNRFLAWYQQRPGQAPRLLIYAASSRATGVPDRFSGSGSGTDFTLTISRLEAEDFAMYHCQQYGSFPRTFGQGTMVDIKDQPQFSGAPRFKTRPKAFVVSVGKDATLSSQIVGNPTPQVSWEKDQQPVAAGARFRLAQDGDLYRLKILDLALGDSGQYVSRARNAIGEAFACVGLQVDAEA
B15: N18 (antibody)
heavy: not shown
light: EIVLTQSPGTLSLSPGERATLSCRASQNINNRFLAWYQQRPGQAPRLLIYAASSRATGVPDRFSGSGSGTDFTLTISRLEAEDFAMYHCQQYGSFPRTFGQGTMVDIKDQPQFSGAPRFLTRPKAFVVSVGKDATLSSQIVGNPTPQVSWEKDQQPVAAGARFRLAQDGDLYRLTILDLALGDSGQYVSRARNAIGEAFACVGLQVDAEA
B16: N21 (antibody)
heavy: not shown
light: EIVLTQSPGTLSLSPGERATLSCRASQNINNRFLAWYQQRPGQAPRLLIYAASSRATGVPDRFSGSGSGTDFTLTISRLEAEDFAMYHCQQYGSFPRTFGQGTMVDIKDQPQFSGAPRFKTRPKAFVVSVGKDATLSSQIVGNPTPQVSWEKDQQPVAAGARFRLAQDGDLYRLHILDLALGDSGQYVSRARNAIGEAFACVGLQVDAEA
B17: N22 (antibody)
heavy: not shown
light: EIVLTQSPGTLSLSPGERATLSCRASQNINNRFLAWYQQRPGQAPRLLIYAASSRATGVPDRFSGSGSGTDFTLTISRLEAEDFAMYHCQQYGSFPRTFGQGTMVDIKDQPQFSGAPRFRTRPKAFVVSVGKDATLSSQIVGNPTPQVSWEKDQQPVAAGARFRLAQDGDLYRLKILDLALGDSGQYVSRARNAIGEAFACVGLQVDAEA
B18: N24 (antibody)
heavy: not shown
light: EIVLTQSPGTLSLSPGERATLSCRASQNINNRFLAWYQQRPGQAPRLLIYAASSRATGVPDRFSGSGSGTDFTLTISRLEAEDFAMYHCQQYGSFPRTFGQGTMVDIKDQPQFSGAPRFRTRPKAFVVSVGKDATLSSQIVGNPTPQVSWEKDQQPVAAGARFRLAQDGDLYRLHILDLALGDSGQYVSRARNAIGEAFACVGLQVDAEA
B19: N25 (antibody)
heavy: not shown
light: EIVLTQSPGTLSLSPGERATLSCRASQNINNRFLAWYQQRPGQAPRLLIYAASSRATGVPDRFSGSGSGTDFTLTISRLEAEDFAMYHCQQYGSFPRTFGQGTMVDIKGGGGSGGGGSSGAPRFLTRPKAFVVSVGKDATLSSQIVGNPTPQVSWEKDQQPVAAGARFRLAQDGDLYRLTILDLALGDSGQYVSRARNAIGEAFACVGLQVDAEA
B20: N26 (antibody)
heavy: not shown
light: EIVLTQSPGTLSLSPGERATLSCRASQNINNRFLAWYQQRPGQAPRLLIYAASSRATGVPDRFSGSGSGTDFTLTISRLEAEDFAMYHCQQYGSFPRTFGQGTMVDIKGGGGSSGAPRFLTRPKAFVVSVGKDATLSSQIVGNPTPQVSWEKDQQPVAAGARFRLAQDGDLYRLTILDLALGDSGQYVSRARNAIGEAFACVGLQVDAEA
B21: N27 (antibody)
heavy: not shown
light: EIVLTQSPGTLSLSPGERATLSCRASQNINNRFLAWYQQRPGQAPRLLIYAASSRATGVPDRFSGSGSGTDFTLTISRLEAEDFAMYHCQQYGSFPRTFGQGTMVDIKGGGGSGGGGSSGAPRFLTRPKAFVVSVGKDATLSSQIVGNPTPQVSWEKDQQPVAAGARFRLAQDGDLYRLTILDLALGDSGQYVSRARNAIGEAFACVGLQVDAEA

The binders below were run against T2, hPDL1 antigen (human, UniProt Q9NZQ7 19-239, limits assumed) (assay: ELISA).
T2 construct: bought
T2 sequence (Q9NZQ7 19-239 limits assumed): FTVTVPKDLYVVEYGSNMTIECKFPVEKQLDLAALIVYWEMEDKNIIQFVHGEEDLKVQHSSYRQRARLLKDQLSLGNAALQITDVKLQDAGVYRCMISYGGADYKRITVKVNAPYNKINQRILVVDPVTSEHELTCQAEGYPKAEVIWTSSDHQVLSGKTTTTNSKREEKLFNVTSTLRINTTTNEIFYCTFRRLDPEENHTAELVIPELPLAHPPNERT
Protocol: For an antibody targeting a soluble protein, the binding activity of the antibody against the soluble protein was detected by ELISA. […] After the blocking was completed, the blocking solution was discarded; and the plate was washed 3 times with a PBST buffer (pH 7.4, PBS containing 0.1% tween-20). 100 μL of the antibody solution diluted in a gradient was added to each well, and the mixture was incubated at 37° C. for 1 h. After the incubation was completed, the plate was washed 3 times with PBST. […] The plate was washed 3 times with PBST. […] The reaction was stopped by adding 50 μL of 1 M H₂SO₄ to each well. The absorbance values at 450 nm were read on a microplate reader, the binding curves of the antibodies to an antigen were fitted with software, and the EC₅₀ values were calculated.

First: B1
Second: B2
The EC50 of the first is 3.2-fold higher: 1.6 nM for the first, 0.5 nM for the second.

B3 and B4 are within 1.5-fold of each other in EC50: 0.6 nM for the first, 0.7 nM for the second.

B5 and B6 are within 1.5-fold of each other in EC50: 0.7 nM for the first, 0.8 nM for the second.

First: B7
Second: B8
The EC50 of the first is 2.8-fold lower: 0.5 nM for the first, 1.4 nM for the second.

For B9, the EC50 was 0.6 nM.

Each binder was assayed against T1, CEA on MKN45 cells (assay: FACS, MKN45 cells).

B10 and B11 are within 1.5-fold of each other in EC50: 2.6 nM for the first, 2.2 nM for the second.

Compared with B12, B13 is 2.2-fold higher in EC50: 4.3 nM for the first, 9.4 nM for the second.

B14 and B15 are within 1.5-fold of each other in EC50: 2.8 nM for the first, 3.2 nM for the second.

B16 and B17 are within 1.5-fold of each other in EC50: 5.2 nM for the first, 4.5 nM for the second.

Compared with B18, B19 is 11-fold lower in EC50: 6.7 nM for the first, 0.62 nM for the second. The second is the more potent here.

B20 and B21 are within 1.5-fold of each other in EC50: 0.84 nM for the first, 0.67 nM for the second.

From patent publication US20240392020A1 (JIANGSU HENGRUI PHARMACEUTICALS, published 2024)
